B1: DVL3 (parent)
chain: YNPHPGFPELGYSYGGGSASSQHS
B2: VPS39 (parent)
chain: LRLENNHCHIEESEHVLKKAHKYS

Variants of: B1
Assay: protein stability index of a GFP-peptide fusion (GPS, HEK-293T) (PSI 1-6); higher = more stable
Settings: c terminus: a fixed tail appended
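Also: lentivirally expressed fusions sorted by FACS into six bins by GFP to DsRed ratio, PSI derived from sequencing read proportions per bin multiplied by bin number.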

Protein stability index of substitutions, site by site:
S24: L 2.62 | P 3.36 | I 2.56 | N 2.42 | K 2.76 | M 2.44 | G 3.11 | D 3.13 | E 2.41 | H 2.33 | T 1.78 | Y 2.26 | R 1.87 | V 2.41 | W 2.03 | F 2.14 | A 2.33
Y14: E 4.1 | Q 3.15 | I 2.64 | M 2.86 | P 3.32 | H 3.71 | R 3.05 | K 2.95 | F 2.4 | C 3.1 | G 3.69 | S 3.48 | T 3.24 | L 2.69 | D 3.38 | A 3.77 | V 3.26 | W 2.76 | N 3.59
G17: M 2.25 | E 3.05 | Q 2.87 | N 2.6 | V 1.63 | S 3.29 | T 2.85 | D 2.72 | R 2.82 | I 1.96 | F 1.77 | L 2.14 | C 3.22 | P 2.62 | A 2.73 | Y 2.23 | K 2.83 | H 2.15 | W 1.69
H23: L 2.86 | A 2.62 | W 2.19 | F 2.37 | R 3 | C 2.38 | K 2.87 | N 2.99 | M 3.04 | Q 2.58 | D 3.14 | G 2.78 | P 2.79 | T 3.2 | S 2.62 | V 2.32 | Y 2.92 | I 2.9 | E 2.6
G16: C 2.04 | T 2.57 | E 3.61 | H 2.72 | I 2 | P 2.74 | Y 2.32 | D 3.4 | W 2.04 | M 2.79 | L 2.3 | Q 3.02 | R 2.63 | A 3.45 | K 2.93 | V 1.89 | N 2.99 | S 2.95 | F 1.79
A19: P 2.74 | Q 2.99 | R 3.04 | S 2.79 | I 2.3 | K 2.94 | Y 2.4 | F 2.09 | L 2.17 | M 2.57 | E 2.92 | V 2.03 | H 2.3 | T 2.53 | G 3.57 | W 1.4 | D 3.01 | N 3.07 | C 2.19
L10: H 3.4 | M 2.04 | T 2.98 | P 3.04 | V 3.17 | D 3.55 | R 3.64 | Y 2.57 | E 4.41 | I 2.6 | Q 3.18 | F 2.92 | K 3.05 | N 3.74 | A 3.17 | S 3.16 | C 3.06 | W 1.3 | G 2.94
G11: D 2.82 | A 2.76 | Q 3.29 | C 2.3 | K 3.13 | Y 2.66 | T 2.76 | S 2.71 | L 2.04 | M 3.03 | V 2.44 | P 2.29 | W 2.29 | N 2.72 | R 3.24 | E 3.4 | I 2.24 | H 2.46
S20: W 1.95 | D 3.09 | Y 1.79 | E 2.95 | P 2.89 | I 2.08 | N 2.74 | G 2.97 | T 2.58 | V 3.12 | M 2.46 | C 2.88 | K 2.65 | A 3.01 | Q 2.66 | F 2 | R 2.73 | H 2.59 | L 2.2
S21: M 2.89 | C 2.1 | E 2.96 | Q 2.79 | K 2.54 | I 2.56 | N 2.62 | V 3.41 | D 3.01 | G 2.61 | P 2.88 | R 2.86 | A 3.1 | Y 2.37 | F 1.88 | L 2.24 | T 2.64 | W 1.95 | H 2.55
Y12: E 3.79 | T 3.01 | F 3.09 | A 2.87 | M 3.29 | S 3.15 | K 2.47 | R 2.68 | G 3.51 | H 3.26 | Q 3.42 | W 2.19 | L 2.03 | D 4.19 | I 2.06 | C 2.27 | P 1.99 | V 1.74 | N 3.96
S13: Q 3 | F 1.95 | N 3.08 | P 2.58 | Y 2.19 | T 2.23 | G 2.55 | H 2.59 | R 2.85 | C 1.78 | K 2.94 | W 2.53 | M 2.67 | D 3.52 | I 2.24 | E 3.71 | V 1.71 | L 2.13 | A 2.95
S18: P 2.71 | Q 2.92 | N 3 | E 3.19 | H 2.53 | R 2.44 | V 2.72 | Y 2.11 | C 2.57 | F 2.58 | I 2.49 | K 3.09 | W 1.65 | D 2.85 | M 2.08 | T 2.26 | G 2.68 | L 1.83 | A 2.94
Q22: D 3.41 | V 2.33 | P 2.98 | F 2.88 | H 2.73 | E 2.85 | K 3.4 | N 2.6 | M 2.08 | L 1.67 | G 2.62 | W 2.06 | Y 2.4 | C 2.13 | T 3.69 | R 2.58 | A 2.23 | I 2.33 | S 2.71
G15: M 2.57 | C 2.11 | L 2.24 | D 3.37 | K 2.91 | V 2.22 | H 2.3 | R 2.33 | F 2.54 | N 2.63 | T 3.05 | I 2.63 | S 2.86 | E 3.33 | P 2.9 | W 2.3 | Q 2.63 | Y 1.82 | A 2.43
E9: Y 1.14

Variants of: B2
Assay: as above
Settings: c terminus: a fixed tail appended

Protein stability index, by site and new letter:
L3: E 4.58 | K 4.32 | R 4.51 | A 3.55 | F 2.09 | Q 4.06 | H 3.6 | I 2.62 | M 3.13 | N 3.17 | P 3.7 | G 4.43 | D 3.12
L1: V 2.29 | G 4.6 | E 4.29 | I 3.44 | K 4.2 | D 4.36 | F 2.3 | M 2.99 | P 3.79 | W 3.14 | A 3.91 | C 3.29 | S 4.19 | T 4.32 | H 4.02 | Q 4.08 | N 3.65 | Y 4.1 | R 3.48
R2: P 4.55 | D 4.26 | M 2.66 | T 3.81 | Q 4.11 | E 4.59 | F 2.62 | V 2.44 | L 2.54 | I 2.54 | Y 2.79 | S 3.62 | C 3.15 | H 3.55 | N 3.55 | W 2.15 | G 4.24 | K 3.12 | A 3.68
